This note sets out measurements from the PETadex activity labels (doi:10.1038/s41467-025-61599-z).

B1: unnamed (protein)
chain: MRIRQALVAFCAAIAMVVAGPSYASALDSPYQRGPDPTEASVKAIAGPFAVDQVKATGHTGFGSGTIFYPKDEKGTFGTIAVSPGFISPEGLVHWYAKTLASHGFVVMAMGTFTVADPPPSRGDQLRAALDYMKTKSPVKDKVDPTRLGLSGHSMGGGGTLDAASKMPDLKAAVPLAPWYLTGGPVIPKVKAPTLVVGANIDFVAPMAIFATPFYKALTSPNKALLTLPGDHMTPFLLANPTLTKFAVSWFKRFLDDDTRYDQFLCPNPASYEGTCPLT
B2: unnamed (protein)
chain: MKTNRRTLMLTGIAMTIGTAGRAAQATPEFKPQPGPLSIKSAAAISFRVEDQAKDLQIRVTYPDGPGPWPAIIFSHGAMSSKDFYNRVADHWATHGYATILPTHLDSESLGYSFKNPLPREKVFFGRIGDMQFILNHLDEIAGKAGIAGKIEKTKLAVAGHSFGGWTSLILAGLPVKMPDGSLKSFADSRIKALVSYNGIGPMDEIPDAAWAKVAIPVFAASGTNDPGATGSGPVHPWRWRIGAYDYAGSKEKYAVSITMGDHYYGGLICREGAGGKPDPEGLSFVNGSSTAFMDAYLKDDKSAKKFLRTADLRPLTNDRAFLERS
B3: unnamed (protein)
chain: MDGVLWRVRTAALMAALLALAAWALVWASPSVEAQSNPYQRGPNPTRSALTADGPFSVATYTVSRLSVSGFGGGVIYYPTGTSLTFGGIAMSPGYTADASSLAWLGRRLASHGFVVLVINTNSRFDYPDSRASQLSAALNYLRTSSPSAVRARLDANRLAVAGHSMGGGGTLRIAEQNPSLKAAVPLTPWHTDKTFNTSVPVLIVGAEADTVAPVSQHAIPFYQNLPSTTPKVYVELDNASHFAPNSNNAAISVYTISWMKLWVDNDTRYRQFLCNVNDPALSDFRTNNRHCQ
B4: unnamed (protein)
chain: MALVTALALVTGVGTAPAFADEIGQAPTAANITGDGSFSTSSSAIFGQSGFGGGTAYYPNTAGKYPVVAFAPGFLSDWNALNWLGPRVASWGFVVVGVNTNTPFDFPDARGDQLLAALNWAVNSAPAAVRDKADGSRRGVSGWSMGGGGTLEALAKDTTGTVKAGVPLAPWHTNKTWSKVTEPVFIIGGQNDSVAAPASHAIPFYNSLGGPKSYLERAGADHFFPTKSNGTVSRAVVSFFKRHVSADTRFTPFLCGFSGLDVSNFRSNSC
B5: unnamed (protein)
chain: MQTNPYARGPNPTAASLEASAGPFTVRSFTVSRPSGYGAGTVYYPTNAGGTVGAIAIVPGYTARQSSIKWWGPRLASHGFVVITIDTNSTLDQPESRSSQQMAALRQVASLNGTSSSPIYGKVDTARMGVMGWSMGGGGSLISAANNPSLKAAAPQAPWHSSTNFSSVTVPTLIFACENDSIAPVNSSALPIYDSMSQNAKQFLEIKGGSHSCANSGNSNQALIGKKGVAWMKRFMDNDTRYSTFACENPNSTAVSDFRTANCS
B6: unnamed (protein)
chain: MNFPRASRLMQAAVLGGLMAVSAAATAQTNPYARGPNPTAASLEASAGPFTVRSFTVSRPSGYGAGTVYYPTNAGGTVGAIAIVPGYTARQSSINWWGPRLASHGFVVITIDTNSTLDQPSSRSSQQMAALRQVASLNGTSSSPIYGKVDTARMGVMGWSMGGGGSLISAANNPSLKAAAPQAPWNSSTNFSSVTVPTLIFACENDSIAPVNSHALPFYNSMSRNAKQFLEINGGSHSCANSGNSNQALIGKKGVAWMKRFMDNDTRYSTFACQNPNSTRVSDFRTANCS
B7: unnamed (protein)
chain: MNAPLFKLAALTLGLSLASVVLANNPGGGGGTAPDTGTGFPGVSNFSASGSFATTSGSAGASCTVFRPSTLGANNRKHPIIVWGNGTTASPNTYASLLQHWASHGFVVIAANTSNAGTGQEMLGCVDYLTTQNNRSTGTYAGKLDLNRIGAAGHSQGGGGTIMAGQDYRIKVTAPFQPYTIGLGHNSSSQSNQNGPMFLMTGSIDTIASPTLNALPVYTRANVPVFWGELSGASHFEPVGNAGDFRGPATAWFRYHLMDDASAEDTFYGSNCDLCTDRDWDVRRKGIN
B8: unnamed (protein)
chain: MQDNSDGRYRPEGRTFARGAANLFDDRLFEARTYVTGTDVAEFASATIFYPLTLSFDLPNGVVVMSPGYTGTPESYDWWGPMLASVGIITAIIETNTPEDNLEQRKNALIAGIELIKRENANSASPINNKVDESQIAIMGHSLGGGASLRAAEELEGDIKAVIPLTPYCCELGQSFEGDLKGVSTPTLIIAAADDTIAPPETHSRLLYDEINSSTNKVYLEFAEGAHGLPTNQGSEFQTQGTYVYAFLKANFTNDSKYSDFIGGDGEDSFSSYETN
B9: unnamed (protein)
chain: MRVLAMTLALVASTLATPTALAAPPDYGLPGSYPVAYSDVTAVAGGRSVPARVHYPATTSGTNQPVATGRFPVIAFGHGFFQATSKYTSTSTHLASWGFVVVVPTTQGGLSPSHGAFADDLNTGLTWLVAQDGTTGSRFRDHITTTALGVSGHSMGGGAAVLAAARNPKIKAVSTYAAAETNPSAKAAAATLAAPAQFLAGSQDTITPVGDHQRPMFTAKPPARQLRTITGGFHCGFMDSSGLFCDNGSITRAAQLTASKRVMTSWFRHYLSGDTAARDLVWGQPARTDPAVVFEGTE
B10: unnamed (protein)
chain: MLSKRGILGALAGGAVAVGCLTAPAHAAGFEKGPDPTTASVTADRGSYDIAQVDVPKGSGTGFADGTIYYPKSTADGTFGAVAVIPGFLEPKSAIDWYGPRLASQGFVVMTLDTTSVFDTPDSRGGQLLAALDYLTSKSTVKDRIDPNRLAVVGHSMGGGGTLSAAANRPNLKAAVALAPWHVSAPLTSVKTPTMIFGSDNDFIAPDGTFAKPFYDGISNAPEKAYVRLKNAGHMAYVFPDKRIAEYTLSWLKRYVDDDTRYTQFLCPGPTNESTIAAYKSTCPM
B11: unnamed (protein)
chain: MRARIAALVAVPFLGAGAFAVSSVAAGDPPAVRTVPAAAAAPVDWSKTGPHQVKVDKADAHTIYRPSDLGSGGVKNPVVIWGNGTGATPAAYDGLLRHWASHGFVVAAANTKQANNGNAMRAGLDLVTKWNTTSSSPYYGKVDVSRVASSGHSQGGAGAMNAAVDTRVDAVLPIQPGPLAAPRKFKQPTFYMAGQNDRVVWPSWVRNFYNKSGHLPAVFGVVRGATHVAPAGDGGAFRGPTTAWLSFTLRGDASARAQFAGASCGYCGASSPFSNWLRNTRFTSQNG
B12: unnamed (protein)
chain: MTAAAVSSRYYEETGPHAVTVEQGGPDHTLYYPSDLGAGGTQHPVVIWGNGTGATPETYDEGLRHFASWGFVVAAANTTQAGSGKEMLAGARFLIEEDQRSGSVFYGKIDETRIGAAGHSQGGGGAIAAGADPIVDTTIPIQPGPQGTVGDLHGPAFFISGQFDWIVPSSYVYSRYLGADHVPAVFGELRGADHFFPGDTRLRLIGATTAWFRFHLMADENARGIFFGPSSTCGICTDTEAWSKVDRNAKAQAIPG

Substrate in one series: not listed separately
The series is described as follows: Proxy for plastic degradation [UPLC/UHPLC]. The settings on record: pH 9; 30 °C.
Consider B1, for which the “Proxy for plastic degradation” value came out at 11.2 µM.

As for B2, the “Proxy for plastic degradation” value stood at 15.7 µM.

In the case of B4, the “Proxy for plastic degradation” value worked out at 65.5 µM.

In the case of B6, the “Proxy for plastic degradation” value was determined as 17.3 µM.

Turning to B7, the “Proxy for plastic degradation” value was determined as 8.31 µM.

Take B8: the “Proxy for plastic degradation” value was 15.4 µM.

In the case of B9, the “Proxy for plastic degradation” value amounted to 13 µM.

On to B10, for which the “Proxy for plastic degradation” value was 14.7 µM.

For B11, the “Proxy for plastic degradation” value came out at 12.7 µM.

As to B12, the “Proxy for plastic degradation” value is 13.9 µM.

The series is the same for the next values; noted with them: pH 9; 40 °C.
As for B1, the “Proxy for plastic degradation” value was 22.8 µM.

Regarding B2, the “Proxy for plastic degradation” value amounted to 12.8 µM.

Turning to B4, the “Proxy for plastic degradation” value came out at 759 µM.

For B6, the “Proxy for plastic degradation” value turned out to be 64.7 µM.

For B7, the “Proxy for plastic degradation” value came out at 9.03 µM.

As for B8, the “Proxy for plastic degradation” value turned out to be 15.5 µM.

B9: the “Proxy for plastic degradation” value came to 18 µM.

As for B10, the “Proxy for plastic degradation” value was determined as 14.2 µM.

In the case of B11, the “Proxy for plastic degradation” value came to 12.6 µM.

Turning to B12, the “Proxy for plastic degradation” value was 14.7 µM.

The same series, now with this note: pH 9; 50 °C.
As for B1, the “Proxy for plastic degradation” value turned out to be 44.2 µM.

Take B2: the “Proxy for plastic degradation” value is 17.3 µM.

As to B4, the “Proxy for plastic degradation” value amounted to 3600 µM.

For the protein B6, the “Proxy for plastic degradation” value turned out to be 46.9 µM.

As for B7, the “Proxy for plastic degradation” value came out at 9.57 µM.

In the case of B8, the “Proxy for plastic degradation” value worked out at 15.5 µM.

On to B9, for which the “Proxy for plastic degradation” value was found to be 16.6 µM.

As for B10, the “Proxy for plastic degradation” value is 14.1 µM.

Regarding B11, the “Proxy for plastic degradation” value was 15.7 µM.

Take B12: the “Proxy for plastic degradation” value was determined as 10.6 µM.

The same series, now with this note: pH 9; 55 °C.
Regarding B1, the “Proxy for plastic degradation” value turned out to be 26.1 µM.

As for B2, the “Proxy for plastic degradation” value turned out to be 17.3 µM.

Consider B4, for which the “Proxy for plastic degradation” value amounted to 596 µM.

As for B6, the “Proxy for plastic degradation” value amounted to 27.4 µM.

With B7, the “Proxy for plastic degradation” value amounted to 9.09 µM.

With B8, the “Proxy for plastic degradation” value was determined as 16.6 µM.

Take B9: the “Proxy for plastic degradation” value came to 16.2 µM.

As for B10, the “Proxy for plastic degradation” value was 14.4 µM.

In the case of B11, the “Proxy for plastic degradation” value came out at 16 µM.

For B12, the “Proxy for plastic degradation” value turned out to be 15.5 µM.

Still in this series, the particulars now being: pH 9; 60 °C.
Turning to B1, the “Proxy for plastic degradation” value is 19.7 µM.

For B2, the “Proxy for plastic degradation” value worked out at 17.2 µM.

Consider B4, for which the “Proxy for plastic degradation” value was 167 µM.

With B6, the “Proxy for plastic degradation” value was 17.4 µM.

Take B7: the “Proxy for plastic degradation” value worked out at 9.47 µM.

For B8, the “Proxy for plastic degradation” value came out at 16.1 µM.

With B9, the “Proxy for plastic degradation” value was 16.5 µM.

For B10, the “Proxy for plastic degradation” value was 15 µM.

In the case of B11, the “Proxy for plastic degradation” value was 16.4 µM.

As for B12, the “Proxy for plastic degradation” value turned out to be 15.3 µM.

Substrate in another series: p-NP-C4
Test: not given
The settings on record: pH 8; 65 °C.
In general, Km refers to the concentration of substrate that gives half-maximal velocity. As a reminder, the kcat is the maximal rate divided by the concentration of active sites. For orientation: kcat/Km means the turnover number divided by the Michaelis constant. With B3, the Km was found to be 1050 µM, the kcat is 0.186 s⁻¹ and the kcat/Km amounted to 177 M⁻¹ s⁻¹.

Substrate in the next series: PET
The series is described as follows: Proxy for plastic degradation [kcat/Km (catalytic efficiency)] (mM⁻¹s⁻¹). Conditions: pH 8.
For B3, the “Proxy for plastic degradation” value was 0.208.

Substrate in the next series: PET
The series is described as follows: Proxy for plastic degradation [Released monomer concentration (HPLC/LC-MS) (TPA+MHET)]. Conditions: 30 °C.
On to B3, for which the “Proxy for plastic degradation” value was 44.7 µM.

The same series, now with this note: 40 °C.
As for B3, the “Proxy for plastic degradation” value was 115 µM.

Still in this series, the particulars now being: 50 °C.
On to B3, for which the “Proxy for plastic degradation” value was 628 µM.

The series is the same for the next values; noted with them: 55 °C.
In the case of B3, the “Proxy for plastic degradation” value worked out at 2030 µM.

Staying with this series, now noted: 60 °C.
Take B3: the “Proxy for plastic degradation” value came out at 2450 µM.

The series is the same for the next values; noted with them: 65 °C.
In the case of B3, the “Proxy for plastic degradation” value was 3150 µM.

Substrate in the next series: p-NP-C4
Test: not given
Conditions: 50 °C.
B4: the Km worked out at 1040 µM, the kcat is 0.27 s⁻¹ and the kcat/Km was 260 M⁻¹ s⁻¹.

Still in this series, the particulars now being: 50 °C; part of the chain shown.
Regarding B5, the Km turned out to be 1570 µM, the kcat came to 0.215 s⁻¹ and the kcat/Km is 137 M⁻¹ s⁻¹.
